Literature values, collected in PMC13312411.
Where two headings read alike, the source gives them in different places.

Tests used:
Hsc70 (Homo sapiens) [1] = target: Hsc70 (Homo sapiens) (UniProt P11142)
Hsc70 (Homo sapiens) [2] = target: Hsc70 (Homo sapiens) (UniProt P11142); remark: listed apart in the source

UniProt P11142, sequence (P11142 2-646): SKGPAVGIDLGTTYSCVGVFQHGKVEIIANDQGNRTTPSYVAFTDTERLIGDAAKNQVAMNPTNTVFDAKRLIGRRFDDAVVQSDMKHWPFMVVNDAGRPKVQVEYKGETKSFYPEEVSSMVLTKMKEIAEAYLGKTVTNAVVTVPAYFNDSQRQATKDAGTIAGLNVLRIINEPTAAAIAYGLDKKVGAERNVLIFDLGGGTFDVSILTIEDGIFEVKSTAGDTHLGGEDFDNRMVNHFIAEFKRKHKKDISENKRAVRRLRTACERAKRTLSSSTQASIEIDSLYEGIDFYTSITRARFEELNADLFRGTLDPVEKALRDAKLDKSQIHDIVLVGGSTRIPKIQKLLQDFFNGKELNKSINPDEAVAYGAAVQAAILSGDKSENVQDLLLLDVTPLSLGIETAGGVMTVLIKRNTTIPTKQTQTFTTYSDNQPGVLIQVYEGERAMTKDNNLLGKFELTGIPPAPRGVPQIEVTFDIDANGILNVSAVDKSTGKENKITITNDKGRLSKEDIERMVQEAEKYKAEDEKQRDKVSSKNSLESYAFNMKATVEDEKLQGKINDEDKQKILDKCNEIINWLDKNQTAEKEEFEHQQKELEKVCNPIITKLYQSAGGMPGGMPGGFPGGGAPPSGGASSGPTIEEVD

Substance | Kd (Hsc70 (Homo sapiens) [1]) | Kd (Hsc70 (Homo sapiens) [2])
DNAJB6 JD-GF (open) JD-GF (from UniProt O75190) | 400 µM | 
DNAJB6 J-domain JD (from UniProt O75190) |  | 3 µM
